Reference: patent US11674959B2, “Methods for identifying and preparing pharmaceutical agents for activating Tie1 and/or Tie2 receptors” (The Johns Hopkins University, priority 2017, dated 2023)

What was measured:
MEC monolayers = assay: FITC Transwell permeability assay; type: cell-based, human; details: single agent alone; FITC-Dextran 40 kDa, three hours
Experimental: The integrity of these junctions is also important for the regulation of monolayer permeability by controlling the size of intercellular openings. The effect of the AXT107 on EC permeability was further investigated by the transendothelial diffusion of FITC-labeled dextran across MEC monolayers seeded onto permeable Transwell® substrates.
(§1) Human dermal microvascular endothelial cells (Lonza) were maintained at 37° C. and 5% CO2 in EBM-2MV medium (Lonza) and used between passages two through seven. Where applicable, cells were serum starved in EBM-2 medium (Lonza) with no supplements. For FITC-Dextran permeability assays phenol red-free media were used to avoid auto-fluorescence. AXT107 were manufactured at New England Peptide by […], lyophilized, and dissolved in 100% DMSO.
Transwell, twenty-four-well inserts (Corning) were coated with 7.5 μg/cm^2 FN1 for two hours at 37° C., aspirated, and then dried for thirty minutes at room temperature. Wells were then seeded with 7.5×10^4 MECs in 100 μl of EBM-2 media (without phenol red) and allowed to settle for thirty minutes at room temperature. 1 ml of EGM-2 media was then added to the bottom chamber and an additional 200 μl to the top chamber. The plate was incubated for twenty-four hours at 37° C. after which the media was aspirated and an additional 7.5×10^4 MECs were plated in each well as described above. After forty-eight hours at 37° C., the media was aspirated from both chambers and the cells were washed twice in dPBS containing Ca^2+ and Mg^2+, once with EBM-2 media (without phenol red) and serum starved in EBM-2 media applied to both chambers for two hours at 37° C. After this incubation, 100 μM AXT107 or an equivalent amount of DMSO vehicle was added and incubated for an additional ninety minutes. In the top chamber, the cells were then treated with 200 ng/ml Ang2, 100 ng/ml VEGFA, both, or PBS control and in the bottom chamber, the cells were then treated with 25 μg/ml FITC-Dextran (40 kDa MW). AXT107 was also added in both chambers to maintain a concentration of 100 μM. After three hours, 10 μl was removed from the top chamber of each well and mixed with 90 μl of water in a clear bottom, 96-well plate. Fluorescence values for each sample were calculated using a Perkin Elmer plate reader.

Tie2 = assay: Western blot of MEC lysates, Ang1/2 signaling: Tie2 phosphorylation; type: cell-based, human; details: ligand alone, no AXT107
Experimental: To investigate the effects of the integrin inhibitor AXT107 on Tie2 signaling, confluent monolayers of microvascular endothelial cells (MECs) on fibronectin-coated dishes were treated with various concentrations of AXT107 followed by exposure to the Tie2 ligands Ang1 or Ang2.
as §1
For Ang1/2 signaling investigations, cell culture dishes (10 cm diameter) were coated with 5 μg/ml fibronectin (FN1; Sigma-Aldrich, St. Louis, Mo.) for two hours at 37° C. The FN1 solution was then removed by aspiration and 5×10^6 microvascular endothelial cells (MECs; Lonza, Walkersville, Md.) were plated in EGM-2MV media (Lonza) and cultured for forty-eight hours at 37° C. The cells were then serum starved for sixteen hours in serum-free EGM-2 base media (Lonza). AXT107 (0-100 μM, as indicated) was subsequently added to each culture and incubated for seventy-five minutes at 37° C. The cultures were then treated with 1 mM sodium vanadate (New England Biolabs, Ipswich, Mass.) for fifteen minutes to enhance the phospho-Tie2 signal followed by stimulation with 200 ng/ml angiopoietin (R&D Systems, Minneapolis, Minn.) for an additional fifteen minutes. The cells were then transferred to ice, washed twice with ice cold Dulbecco's phosphate-buffered saline (dPBS) containing Ca^2+ and Mg^2+, and collected by scraping in 500 μl of 1× Blue Loading Buffer (Cell Signaling, Danvers, Mass.). Lysate samples were then sonicated, boiled, and resolved by SDS-PAGE. Specific proteins were identified by Western blot, using the following primary antibodies: Cell Signaling—phospho-Tie2 (Y992) (Cat #: 4221), Tie2 (Cat #: 7403), phospho-Stat3 (Y705) (Cat #: 4113), Stat3 (Cat #: 4904), phospho-Akt (S473) (Cat #: 4058), Akt (Cat #: 9272), phospho-p44/42 MAPK (T202/Y204) (Cat #: 4370), p44/42 MAPK (Cat #: 4695); BD Transduction Laboratories—β1 integrin (Cat #: 610467); Millipore—α5 integrin (Cat #: AB1928) and detected with HRP-conjugated goat anti-rabbit and sheep anti-mouse secondary antibodies (GE healthcare).

In the case of VEGF [reference compound], the “FITC-dextran diffusion across the monolayer, agent alone” value (MEC monolayers) is reported as “appeared to increase permeability (although non-significantly)”.

B1: Ang1: angiopoietin 1, Tie2 ligand (protein)
chain: SNQRRSPENSGRRYNRIQHGQCAYTFILPEHDGNCRESTTDQYNTNALQRDAPHVEPDFSSQKLQHLEHVMENYTQWLQKLENYIVENMKSEMAQIQQNAVQNHTATMLEIGTSLLSQTAEQTRKLTDVETQVLNQTSRLEIQLLENSLSTYKLEKQLLQQTNEILKIHEKNSLLEHKILEMEGKHKEELDTLKEEKENLQGLVTRQTYIIQELEKQLNRATTNNSVLQKQQLELMDTVHNLVNLCTKEGVLLKGGKREEEKPFRDCADVYQAGFNKSGIYTIYINNMPEPKKVFCNMDVNGGGWTVIQHREDGSLDFQRGWKEYKMGFGNPSGEYWLGNEFIFAITSQRQYMLRIELMDWEGNRAYSQYDRFHIGNEKQNYRLYLKGHTGTAGKQSSLILHGADFSTKDADNDNCMCKCALMLTGGWWFDACGPSNLNGMFYTAGQNHGKLNGIKWHYFKGPSYSLRSTTMMIRPLDF
B1 was tested, and the “Tie2 phosphorylation by ligand alone” value (Tie2) was “induced phosphorylation of Tie2”.

B2: Ang2: angiopoietin 2, Tie2 ligand (protein)
chain: YNNFRKSMDSIGKKQYQVQHGSCSYTFLLPEMDNCRSSSSPYVSNAVQRDAPLEYDDSVQRLQVLENIMENNTQWLMKLENYIQDNMKKEMVEIQQNAVQNQTAVMIEIGTNLLNQTAEQTRKLTDVEAQVLNQTTRLELQLLEHSLSTNKLEKQILDQTSEINKLQDKNSFLEKKVLAMEDKHIIQLQSIKEEKDQLQVLVSKQNSIIEELEKKIVTATVNNSVLQKQQHDLMETVNNLLTMMSTSNSAKDPTVAKEEQISFRDCAEVFKSGHTTNGIYTLTFPNSTEEIKAYCDMEAGGGGWTIIQRREDGSVDFQRTWKEYKVGFGNPSGEYWLGNEFVSQLTNQQRYVLKIHLKDWEGNEAYSLYEHFYLSSEELNYRIHLKGLTGTAGKISSISQPGNDFSTKDGDNDKCICKCSQMLTGGWWFDACGPSNLNGMYYPQRQNTNKFNGIKWYYWKGSGYSLKATTMMIRPADF
With B2 the “FITC-dextran diffusion across the monolayer, agent alone” value (MEC monolayers) was “influenced FITC-dextran diffusion across the monolayer” and the “Tie2 phosphorylation by ligand alone” value (Tie2) was “insignificant effects by itself”.
